US20200057058A1 (MIT, published 2020)

Tests used:
[1] = molecular target: monomeric streptavidin variant mSA2; test: fluorescent binding assay, labeled mSA2; signal three standard deviations above blank
Experimental: (§1) The binding function of rcSso7d.SA oligomer-PNIPAM thin films was measured using fluorescently-labeled monomeric streptavidin (mSA2) and fluorescently-labeled streptavidin (SA). Details for the expression, purification, and fluorescent labeling of mSA2 are provided below. Samples were prepared by serial dilution of SA or mSA2 in PBS (pH 7.4), human urine (diluted to 50% v/v in PBS, pH 7.4), or blood serum (obtained as the supernatant by centrifuging whole blood at 1500×g for 10 minutes, then diluted to 50% v/v in PBS, pH 7.4). 0.5 μL drops of solutions containing serially diluted fluorescent mSA2 and fluorescent SA samples in PBS (pH 7.4) were gently applied to the surface of each bioconjugate thin film. Films were incubated in a sealed chamber saturated with water vapor at room temperature to prevent to prevent drying of the applied fluorescent samples. After 1 hour, films were thoroughly rinsed with water for 10 seconds (a time determined to be sufficient to remove unbound molecules from the film, see FIG. 33, dried under filtered airflow, and immediately analyzed for fluorescent signal. Fluorescence microscopy images were acquired at 4× magnification using a Cy5 filter set and exposure time of 5000 ms on an Olympus IX-81 inverted fluorescence microscope with an AxioCam HRC CCD camera. Fluorescent intensity was calculated using ImageJ software⁶⁷ by determining the average fluorescent signal in a rectangular area of the fluorescent image free of defects and occupying no less than half of the full sample application area.
Oligomerization of rcSso7d.SA also brings about a decrease in biosensor limit of detection (LOD). […] While all thin films display improvements up to threefold in LOD over the monolayer, the trend in LOD with respect to degree of oligomerization is non-monotonic. The primary factor that is expected to affect LOD in the studied biosensors is number of binding sites, as more binding sites enable a greater number of analyte molecules to be captured and shifts analyte-receptor equilibrium in favor of binding events.

[2] = molecular target: monomeric streptavidin variant mSA2; test: fluorescent binding assay, labeled mSA2 in PBS on monolayer; quadratic curve fit
Experimental: as §1, with “Films were incubated in a sealed chamber saturated with water vapor at room temperature to prevent to prevent drying of the applied fluorescent samples.” left out, “area. […]” for “area.”

[3] = molecular target: monomeric streptavidin variant mSA2; test: apparent Kd (Kd,app); fluorescent binding curve, labeled mSA2 in 50% urine, 4 h; quadratic fit
[4] = molecular target: monomeric streptavidin variant mSA2; test: fluorescent binding assay: labeled mSA2 in PBS applied to the protein monolayer, rinsed, fluorescence microscopy
Experimental: as §1, with “Films were incubated in a sealed chamber saturated with water vapor at room temperature to prevent to prevent drying of the applied fluorescent samples.” left out, “area. […]” for “area.”

streptavidin [5] = molecular target: T1, streptavidin (UniProt P22629 37-163, limits assumed); test: apparent Kd (Kd,app); fluorescent binding curve, labeled SA in 50% blood serum, 4 h; quadratic fit
T1 construct: It was used without a stated label in the sandwich assays; also called SA
T1 sequence (P22629 37-163 limits assumed): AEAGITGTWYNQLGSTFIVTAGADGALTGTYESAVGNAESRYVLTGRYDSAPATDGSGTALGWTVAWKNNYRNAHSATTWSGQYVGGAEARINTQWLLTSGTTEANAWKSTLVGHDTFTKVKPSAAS

[6] = molecular target: monomeric streptavidin variant mSA2; test: fluorescent binding curve, labeled mSA2 in 50% blood serum, 4 h; quadratic fit
streptavidin [7] = molecular target: T1, streptavidin; test: fluorescent binding curve, labeled SA in 50% blood serum, 4 h; quadratic fit

B1: rcSso7d.SA monolayer (designed binder)
chain: MGSIHHHHHHSSGLVPRGSHMCATVKFTYQGEEKQVDISKIKIVARDGQYIDFKYDEGGGAYGYGWVSEKDAPKELLQMLEKQ
modifications: EDC/NHS-activated protein coupled to an amine-functionalized silicon wafer
notes: also called monomeric rcSso7d.SA; surface-immobilized rcSso7d.SA
[1]
  limit of detection (LOD): 360 nM
[2]
  Kd: 2 µM
[3]
  Kd: 50 µM
[4]
  EC50 (read off the curve): ~2 µM
Streptavidin [5]
  Kd: 40 µM
[6]
  [P]T (total concentration of binding sites): 0.4 nM
Streptavidin [7]
  [P]T (total concentration of binding sites): 0.28 nM
